Test results from the DeepSol protein solubility set.

assay: soluble on expression in E. coli; label from the status in PepcDB or PDB records

Sequence	soluble on expression in E. coli
MGGFGVGKTTMVGSVSEIRPLTTEETMTQAGIGVDDNYGSASKTATTVAMDFGRISITDELVLYLFGTPGQERFWFLWNGLFEGALGAVVLVDTRRLEVSFDVMGRLEERGVPFVVAVNTFPDAPRYPVAELRTALDLPEEIPILDCDVRRRASSRDVLMTLMRLLHSLAMKGALTLEHHHHHH	not soluble
MGSDKIHHHHHHMPQITIIVPVYNAERTLERCVRSIQAQTVVNWELLLIDDGSEDYSSKLCDEYAIQDSRIRVFHQVNGGASSARNVGLEYTKGEWVVFCDSDDWVDSNWLELFKNQIDNGTELIVQGFIPHGNLWQSRTGINFHGNVKTGILKLQEENILGFMCTKMYKREIIEQCGLRFDTELVLREDELFMLQYAEYISTIQCMEEGAYHYDMPDFSTKYGNIDLFNMFLKIYVVLKRIFSGEDNLLLQNYENDLTQSLFHSFVMRHDDRCKKLENYRKEVGKRVLGVKSLSQFSKYILAYVPSFQVAYLLLEAKAKIVKSMQ	not soluble
MARVVVLGAGIGGLPTAYELKHRLGDRHEVILVSDVDRFTFIPGLVAVALGHNSLERLQVPLETVSRRHGLRWVQGKVQRLAPQEKKIYLPEQALDYDYLVIATGAELAVDLIPGLGIHSHSVCTPAHAVAAQRAWQEFLKEPRDLVVGAAPGASCFGPAYEFLFLAEHALRHHGLRDRVKITFITPEPYVGHLGIGGLANSDQLTRNLIEKRGIETITNAEITAIEPHRILLRDRPVIPFGYSMILPPFRGVPFVRASGLGNEKGFLPLLPTLQHPNYPEIYGVGISVHLPPLEVTPVPVGVPKTGQMTEEMAIAASHNIAVALGELVADPVVPTLDALCFADFGNTGIAYIAAPVIPEPPGENRRLACALQGLWVSWVKAAFERYFLLKMRWGLGVPWFEQWGLRLFFGLSLVRPLQPTVFPEQQPIMKVLEHHHHHH	not soluble
MEKPASKSKRKPKETSDDVDADVLPEKGLHNSDGFLFYHASFRPLTSAQHRRAEEHGIDLKTKKVFTVEESIQVFENWRKFATEHNMKLAKAPEYISPKKTDRHIFKHQEEHHFWPKLCDGLPHRPACTIKMRAISMMTSSFMENLEWSRLAEEIKAKLHTYETNDDLTMQKAQKLLEKGYAASHVAEILNVSNGKMSSMASKLRTLEARNDPTMIHAFYESTVYFGLKLKKLRRAITTNDDYRIESVRRKVRLEEIGLQLHISEQKCKDLLKIVIETIRTKYTESLEEAGLDEDEAWSKALALVDSRPPIEESQLYKALEIICKHIEKAETTGSLLSHEQLPSIIKSHGITGFQSDRSEYAYLHFRLCGLLMHQLTTGFFEHLRREFPLQIKLHCLLWSYKRLDVWEKICVEEGKTRYETVLKSEIANPLASKMTLKFLKNEKVVEWISDPRPPKNRQKAATRRLETAIESFILYSYNKFGETFKFPAKFRRILHTSKTVRSVLEVVSDPENAEFLSIKEARKTVEDASGCKIAVKIKNKRIVPKLKDESDASEDGESENSDSEDLIKHSHSIERSAFEERRDEIEKVLQRADPSKIRAKFRKKDEIPEEILLSKELRQQKRAMTRAAEKLERLEAKICSAEFIDDGSGCSYSQVDEDLLEREKKRKRKKSEASEVVIGTDQLDTAEDLQGSKKKKHAEVLEGKDHEDTGCSDSQQVMDPEVCEDLVEKEKKKKRKRKISEASEVVIGMNQMERAEDLQRSKKKKHAEILEGNDHEDSENLKKRSKKKKKRKDHDAEFDAELDLDSENLDEEPKKRKKHC	soluble
MWYHRLSHLHSRLQDLLKGGVIYPALPQPNFKSLLPLAVHWHHTASKSLTCAWQQHEDHFELKYANTVMRFDYVWLRDHCRSASCYNSKTHQRSLDTASVDLCIKPKTIRLDETTLFFTWPDGHVTKYDLNWLVKNSYEGQKQKVIQPRILWNAEIYQQAQVPSVDCQSFLETNEGLKKFLQNFLLYGIAFVENVPPTQEHTEKLAERISLIRETIYGRMWYFTSDFSRGDTAYTKLALDRHTDTTYFQEPCGIQVFHCLKHEGTGGRTLLVDGFYAAEQVLQKAPEEFELLSKVPLKHEYIEDVGECHNHMIGIGPVLNIYPWNKELYLIRYNNYDRAVINTVPYDVVHRWYTAHRTLTIELRRPENEFWVKLKPGRVLFIDNWRVLHGRECFTGYRQLCGCYLTRDDVLNTARLLGLQA	not soluble
MSLTETQSLELAKELISRPSVTPDDRDCQKLMAERLHKIGFAAEEMHFGNTKNIWLRRGTKAPVVCFAGHTDVVPTGPVEKWDSPPFEPAERDGRLYGRGAADMKTSIACFVTACERFVAKHPNHQGSIALLITSDEEGDALDGTTKVVDVLKARDELIDYCIVGEPTAVDKLGDMIKNGRRGSLSGNLTVKGKQGHIAYPHLAINPVHTFAPALLELTQEVWDEGNEYFPPTSFQISNINGGTGATNVIPGELNVKFNFRFSTESTEAGLKQRVHAILDKHGVQYDLQWSCSGQPFLTQAGKLTDVARAAIAETCGIEAELSTTGGTSDGRFIKAMAQELIELGPSNATIHQINENVRLNDIPKLSAVYEGILVRLLAGNAVEGGSHHHHHH	soluble
MADYWKDVLPVDPYVVKSRSMLQDIDRQIITQLYQPLIGPVAFSLYMTLWGELEQNRLWGGESTHRQLMGMTQSNLKTIHQEQGKLEGIGLLKVYMKESERQERLFIYELLPPLRPNEFFEDGMLNVFLYNRVGKTKYQQLKQFFTHPAISEDAKDITRPFNHAFESLQPSEWKLTSDMEETVRLAEGSEYTSVGQSPSYTITEDVFDFDLFLAGLSETMIPRKAMTQQVRDTIKKLSYLYGIDPLQMQNVVMSAIDERDVITTEALRKAASDWYQIERNGQLPDLVEKTQPVHLREGEQPAEEDSLDGKLIALLEAISPKKLLQDIADGTEPSKADLKIIEEIMFEQKLEPGVTNVLIYYVMLKTDMKLSKNYIQKIASHWARKKVKTVREAMKLAIEENRQYLEWAEGKTKSSKRNQKVIREEKLPDWMTEKETASDSESGQQKLHPQDLEEQKKKMMEEMQKLKKYSAY	not soluble
MGSDKIHHHHHHMAYNDSTKQYQRMLASYTRTGIETAIPGTKEEGIMRYRTMIYTIVNESLSTSYPLTRQLLTAQEWDDTVHRYFSTHACTSPYLWRMPLEFYEYIQEEQSALLIKYPCLSDLLLFEWVEIEVFMMEDEEVLHKTEGAVETDALVLNPACAVQYFQYPVYAKRAAEITPADAAHYFMLTHRNPETGNVAFLEIAPMFARMFEWLTEEAMSVDQLISRFTEESQLALAADSRINIVSFFKNCLSKRIILGFN	not soluble
MSDIKNITKLQIEDKGKKYSLYSLKKLSQELGKDVTRLPYSIRVLLENQLRNIDGYKVKEDDMHKVLDWDAKASSRPEIPHMPARVVMQDFTGVPAVVDLAAMRKAIKDAGGDADKINPLVDTAMVIDHSVQVDFYGTKTALAQNVAKEFERNGERYSLLKWAQKAFDDFIVVPPGMGIIHQVNLEYLAKGALVKNINGEDVIYPDTLVGTDSHTTMINGVGVVGWGVGGIEAEAVMLGQPYYMVLPDVVGVKFTGKLKTGVTATDLVLKVTEVLRKHGVVGKFVEYYGEGLESLSLPDRATIANMAPEYGATIGFFPVDEVTLDFFNNTNRSELVDAAREMYKEQLLFRENPAEEPEYSSIVEIDLSEVESNLAGPKRPQDRVAFHDMKKAFAEALVHEQGLHGFGLTDEQLQKLAEVKGLNERITHGSVAIAAITSCTNTSNPSLLLGAGLLAKKANEKGLKVKPFVKTSLAPGSQVVTQYLEKANLLPELENLGFNLVGYGCTTCIGNSGPLDEPVVEAINEADLIVASVSSGNRNFEGRINPHVKANYLASPIHVVAYALAGTVDFDPVEDAIGKDAEGNDVYLADIWPTTEEIAAIQSHVINSDMFKKAYATVLDGTEDWQKLKAPEGKLYEFDSSSTYIQCPNFFEKFAEGNDDLDIKGARTLLMLGDSVTTDHISPAGAIPEEYPAGQYLKSHGVEKKDFNSYGSRRGNHEVMMRGTFANIRIRNLLLDNVEGGFTKYHLDGSQQYVFDAAMKYKEKGIPLVILAGKEYGTGSSRDWAAKGTFLLGVKAVIAESYERIHRSNLVGMGVLPLEYVNGQNAKTLGLDGTEMFNIKNLNNIKPRQIVIVEAVHPKTAHTTTFEALARLDADVDVDYLKNGGILQTVLKDIMGDKKESKSTQSTTSKGCGSADTSSETSCPFAKIANFFKKLFK	not soluble
MAHHHHHHMSGYLKVLSPDGRWETRYIEIDDAKLRIWRTKGDKESSAAVVKELDLKCATLREVSEPNTWAVQPEKAEATYFQADGEERKTEWMDTLRHYNSSSSGSEKVTLRDFEKKFVLGKGSYGKVFMVVKKDTDKWYAMKEMSAEKMRQAEIKAPFAERIILEEIDHPFIVHLHYSFQEQGNLYMILDLLAGGELFTYIEQHAPLDEEVVKFYAAEVALALGYLHSRNIIYRDLKPENVVFDRDGHACLTDFGLAKANVHEPNAVTYCGTNEYLAPELLKGVPHGKAVDWWSLGLMMCEMLFNDLPFYDENPMQMQMKILTEDVAFPPHIQITEETKDLIRCLLNKNPERRLQTLEAFKAHKCFSNLDFCLLEARKLKAPITPDPNPAHNFAKEFTSEVIVQNESPSQAVVTLAGYTYDRDLSEQEKSPSHSPTIAEELRQRRASKKRPTNGSDAASPPVTGENRTSNSSPAGVPMKQAAPGPVKKVEHHIPAKVAPQAARKKLTGNKSFDKPTK	soluble
MSLRKGIIAAGNMLVDHVHQIRQWPERGWLVEIVHSERATGGAPLNVLLTLAKMHAGLPLQAVGLIGEDNDGDYITAMLDQYHINRQLVQRTSSAPTSMTQVMTDAEGQRTFFHSPGANRLLDLPAFEPLDAPLKIFHLGYLLLLESLDRPDEVYGTRSARLLAQMRERGYEVSLDLVSRKGDPRYRPLVLPALKHLDYLTINELEASEFSGLEIRLPNGEPHVANIARAASALLDAGVRQRVVIHCPEGAWGVSRTEAGRWVPSWRLPPEEIIGSVGAGDAFCAGLLYGSHERWPLTASLQLAHACARASLQAANAIDGAKTLPELQAFIQLQNGEGHHHHHH	soluble
MGSSHHHHHHSSGRENLYFQGHMASQLTDAFARKFYYLRLSITDVCNFRCTYCLPDGYKPSGVTNKGFLTVDEIRRVTRAFARLGTEKVRLTGGEPSLRRDFTDIIAAVRENDAIRQIAVTTNGYRLERDVASWRDAGLTGINVSVDSLDARQFHAITGQDKFNQVMAGIDAAFEAGFEKVKVNTVLMRDVNHHQLDTFLNWIQHRPIQLRFIELMETGEGSELFRKHHISGQVLRDELLRRGWIHQLRQRSDGPAQVFCHPDYAGEIGLIMPYEKDFCATCNRLRVSSIGKLHLCLFGEGGVNLRDLLEDDTQQQALEARISAALREKKQTHFLHQNNTGITQNLSYIGG	soluble
MSHIFDASVLAPHIPSNLPDNFKVRPLAKDDFSKGYVDLLSQLTSVGNLDQEAFEKRFEAMRTSVPNYHIVVIEDSNSQKVVASASLVVEMKFIHGAGSRGRVEDVVVDTEMRRQKLGAVLLKTLVSLGKSLGVYKISLECVPELLPFYSQFGFQDDCNFMTQRF	soluble
MGSDKIHHHHHHMLCENCHFNEAEVKLTVKGIDSTHEKWVCSVCAQGENPWLHSNDDNTYHTHQDDIEEAFVVKQILQHLAAKHGINFHEMAFKEEKKCPTCQMTLKDIAHVGKLGCADCYATFKEDIIDIVQRVQGGQFEHVGKTPQSSYKKLAIKKQIEEKSKYLNKLIDGQEFEEAAIVRDEIKALKSESEVSHDE	not soluble
MGSDKIHHHHHHMLVRQEALSSKMSIKDLPSSSPLPNANLVLVFGSVRRFSDGKLPTQLKERYPAAQIVGCTTSGEIGPHGVSDDSLQITAIAWDNTMQRVTYARANNMQTSAETAINLAKQLKSDSLRTILVFSDGLHINGSELLQGFQSVLGDIPIVGGMAGDNAEFSRTLQLLNDSIEEGLVVAIGLYGDKLITASGALGGWKPYGPPRKITRSEKNVVYEMDGKPALPLYRMYIGEQNAKALPGSGLRFPFAVIEEGKREVEKVRTLLAIDPEENSLTFAGNVEEGETVRLCQTTHDRLVEGAGGAARLVTANLDTSQPGLALCVSCVGRKLVMAEQIADEIQAVQQTLGSQTALTGFYSYGEFCPRPNTTDNVLHNQTMTIGYLSEAL	not soluble
